Results as given in patent publication US6984719B1, “Peptide antagonists of prostaglandin F2α receptor” (Hospital Sainte-Justine, priority 1998, dated 2006).
Square brackets hold non-standard residues; d marks the D form. Ends that are not written are not given here.

How the values were obtained:
FP receptor = target: T1, FP receptor (Sus scrofa, UniProt C6GAG8); assay: Porcine eyecup model of ex vivo vasomotricity assay, PGF2α-induced constriction of retinal microvessels; design: species or system pig; conditions: for % Vasomotor response (of max constriction): compared to maximal constriction without peptide; for change of inhibitory activity of the peptide variant relative to the parent peptide: peptides at 100 μM, porcine retinal vasomotricity assay, structure-activity summary
T1 construct: from tissue; host or cells: eyecup / retinal microvessels of newborn pigs pretreated with ibuprofen
T1 sequence (C6GAG8 1-362): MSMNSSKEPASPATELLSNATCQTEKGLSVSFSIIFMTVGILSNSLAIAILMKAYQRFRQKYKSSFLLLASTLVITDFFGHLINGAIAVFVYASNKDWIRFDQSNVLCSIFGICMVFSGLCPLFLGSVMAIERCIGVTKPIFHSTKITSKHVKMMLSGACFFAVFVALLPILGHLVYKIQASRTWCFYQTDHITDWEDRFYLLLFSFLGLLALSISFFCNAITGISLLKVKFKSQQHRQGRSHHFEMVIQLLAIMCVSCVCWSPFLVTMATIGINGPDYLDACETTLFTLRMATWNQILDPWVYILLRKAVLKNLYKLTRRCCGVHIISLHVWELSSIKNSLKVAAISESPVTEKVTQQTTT
From the text: In order to see if the peptides could inhibit FP function using an ex vivo model, we chose porcine eyecup model, an ex vivo assay of vascular constriction in porcine retinas which we previously described and validated (Li et al., 1996 J. Pharmacol. Expt. Therapeut. 278: 370–377; Li et al., 1997 Am. J. Physiol. 273: R1283–90; Abran et al., 1997 Am. J. Physiol. 272: R995–1001). Since FP receptor densities in newborn vasculature are minimal due to down regulation by high levels of circulating prostaglandins in the perinatal period, the newborn pigs were treated with a prostaglandin synthetase blocker, ibuprofen (30 mg/Kg of bodyweight/8 h for 24 h) to increase the density of the receptors as well as their vasomotor effects. By inhibiting circulating prostaglandins, we were able to show potent inhibition of FP receptor-mediated second messenger synthesis as well as FP-mediated vascular constriction in this eyecup model.
To prepare eyecups, a circular incision was made 3–4 mm posterior to ora serrata to remove the […] segment and vitreous body with minimal handling of the retina. The remaining eyecup was fixed with pins to a wax base in a 20 ml tissue bath containing 20 ml of Kreb's buffer (pH 7.35–7.45), protease inhibitors, leupetin and aprotinin (10 μg/ml each), and equilibrated with 21% oxygen and 5% carbon dioxide at 37° C. The preparations were allowed to stabilize for 30 min. Peptides at 100 μM were added and incubation was continued for 30 min before the addition of PGF2α.
Cumulative concentration-responses of PGF2α, and TxA2 mimetic, U46619, (10^−10 to 10^−5 M) curves were constructed separately. To assess the reversibility of the antagonists, the eyecups were thoroughly washed (which would wash away the peptide) with incubation medium and concentration response curves for PGF2α were determined. The outer vessel diameter was recorded with a video camera mounted on a dissecting microscope (Zeiss M 400™) and the responses were quantified by a digital image analyzer (Sigma Scan Software, Jandel Scientific, Corte Madera, Calif.). Vascular diameter was recorded before and 10 min following the topical application of the agent.
^1Percent vasomotor response in the presence of 100 μM peptide is calculated as percent change in average vascular diameter produced by 10^−7 M PGF2α to the eyecup in the presence of the peptide compared to maximal constriction observed in the absence of the peptide.
^2Percent inhibition produced by each peptide is calculated as (100-percent vasomotor response).
Small letters indicate L-amino acids and capital letters indicate D-amino acids. I=isoleucine; L=leucine; G=glycine; H=histidine; R=Arginine; D=Aspartic acid; Y=Tyrosine; K=Lysine; A=Alanine; W=Tryptophan; E=Glutamic acid; F=Phenyl alanine; Q=Glutamine; N=Aspargine; P=Proline; S=Serine; X=Cyclohexyl alanine. Peptides were dissolved in DMSO freshly just before the experiment as 10 mM stocks and added to the eye cups 30 min before the addition of 10^−7 M PGF2α.
These peptides incorporate L- to D-amino acid changes, deletions, subtle variations in aromaticity, hydrogen bond donor status as opposed to ionic interactions and hydrophobicity.

human FP receptor = target: T2, human FP receptor (Homo sapiens, UniProt P43088); assay: PGF2α-induced phosphoinositide hydrolysis (inositol phosphate synthesis) in HEK293 cells expressing FP receptor; format: cell-based; conditions: HEK293 cells stably expressing human FP receptor; 1 μM PGF2α; read-out: half maximal inhibitory concentration, inositol phosphate synthesis
T2 construct: expressed in transfected cells
T2 sequence (P43088 whole entry): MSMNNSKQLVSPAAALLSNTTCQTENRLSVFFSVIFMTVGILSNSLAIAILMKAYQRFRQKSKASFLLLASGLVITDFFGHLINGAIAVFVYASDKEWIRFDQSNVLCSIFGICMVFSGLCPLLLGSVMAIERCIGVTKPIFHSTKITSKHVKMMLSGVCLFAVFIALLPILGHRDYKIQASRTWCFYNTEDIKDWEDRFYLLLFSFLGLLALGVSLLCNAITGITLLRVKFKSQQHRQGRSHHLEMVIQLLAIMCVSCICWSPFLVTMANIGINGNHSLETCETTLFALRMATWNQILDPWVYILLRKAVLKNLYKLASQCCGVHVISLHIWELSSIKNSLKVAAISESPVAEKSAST
Procedure: Both PCP-8 and -10 were tested in HEK293 cells expressing the human FP receptor. For this purpose, HEK 293 cells stably expressing human FP receptor were plated in 12-well plates in DMEM medium containing 10% fetal bovine serum, penicillin (10 U/ml) and streptomycin (10 μg/ml) and cultured in a humidified atmosphere containing 5% CO2 at 37° C. After the wells were 80% confluent, the cells were labeled with 2 μCi/ml of [^3H]-myo inositol overnight. Next day, the cells were washed once with PBS, and incubated in 0.5 ml of Kreb's buffer containing 10 mM LiCl and indicated concentrations of PCP peptides for 30 min. PGF2α at 1 μM was added to the cells and the incubation was carried out for an additional 30 min. The cells were solubilized with 0.1 N NaOH for 10 min and neutralized with 0.1 N formic acid. The lysates were collected and 1 ml each of methanol and chloroform were sequentially added and vortexed briefly. After centrifugation to separate the phases, inositol phosphates were separated by ion exchange chromatography as described below (Berridge, M. J. et al., 1983, Biochem. J. 212:473–482).
Briefly, the medium was discarded and the IP3 synthesis was stopped by adding 0.6 ml ice-cold methanol. The cells were scraped and collected into polypropylene tubes. Distilled water (0.5 ml) and chloroform (0.6 ml) were added and vigorously vortexed for 2 min. The phases were separated by centrifugation at 6000×g for 10 min. The aqueous phase was applied to AG-1X-8™ (Formate form) anion exchange columns (1 ml bed volume) and free inositol was eluted with 10 ml of water, followed by 60 mM ammonium formate in 0.1 M formic acid. Then, the inositol phosphates were eluted with 5 ml of 1.2 M ammonium formate in 0.1 M formic acid. After adding 3 volumes of scintillation cocktail (Optiphase-HiSafe III), the eluates were counted by scintillation spectrophotometry.
Data are expressed as fold stimulation of inositol phosphate synthesis by 1 μM PGF2α compared to the unstimulated controls. […] The half maximal inhibitory concentrations for both PCP-8 and -10 were slightly less than 100 μM.

[1] = 100 μM peptide, 10^−7 M PGF2α, calculated as 100-percent vasomotor response

Substance	% inhibition of maximal response (FP receptor; [1]) [%]	% Vasomotor response (of max constriction) (FP receptor; 100 μM peptide, 10^−7 M PGF2α) [%]	change of inhibitory activity of the peptide variant relative to the parent peptide (FP receptor)	IC50 (human FP receptor) [µM]	Emax (FP receptor; 100 μM peptide, 10^−7 M PGF2α, calculated as 100-percent vasomotor response, read-out: % inhibition of maximal response) [%]
ILAHRDYK (Peptide antagonist derived from the sequence of the Prostaglandin F2-alpha receptor.) [PCP-13.7]	76.2	23.8	does not change the activity	–	–
ILGFRDYK (Peptide antagonist derived from the sequence of the Prostaglandin F2-alpha receptor.) [PCP-13.11]	87.0	13.0	did not result in significant reduction of peptide inhibitory potency	–	–
ILGHQDYK (Peptide antagonist derived from the sequence of the Prostaglandin F2-alpha receptor.) [PCP-13.18]	70.0	30.0	affected the activity of PCP-13 moderately	–	–
ILGHRDY-amide ([dI][dL]G[dH][dR][dD][dY]-NH2) [PCP-13.20]	50.4	49.6	moderate gain of activity	–	–
ILGHRDYK (Peptide antagonist derived from the sequence of the Prostaglandin F2-alpha receptor.) [PCP-13]	80.0	20.0	increased the inhibitory potency dramatically	–	–
ILGHRDYK-amide ([dI][dL]G[dH][dR][dD][dY][dK]-NH2) [PCP-13.21]	53.8	46.2	moderate gain of activity	–	–
ILGHRNYK (Peptide antagonist derived from the sequence of the Prostaglandin F2-alpha receptor.) [PCP-13.14]	59.7	40.3	moderate loss of activity	–	–
ILGWRDYK (Peptide antagonist derived from the sequence of the Prostaglandin F2-alpha receptor.) [PCP-13.22]	83.4	16.6	did not result in significant reduction of peptide inhibitory potency	–	–
ILaHRDYK ([dI][dL]A[dH][dR][dD][dY][dK]; not fully specified (residue 3); printed as ILaHRDYK) [PCP-13.8]	53.2	46.8	loss of activity	–	–
PCP-11: PCP-8 with the N-terminal hydrophobic dipeptide sequence removed (GHRDYK)	–	–	significant reduction in the inhibitory action	–	–
PCP-12: PCP-10 with the N-terminal hydrophobic dipeptide sequence removed (DRFYLL)	–	–	significant reduction in the inhibitory action	–	–
PCP-13.9: PCP-13 with terminal lysine substituted with W ([dI][dL]G[dH][dR][dD][dY][dW])	–	–	complete loss of activity	–	–
PCP-13.10: PCP-13 with aromatic residue Y substituted with E ([dI][dL]G[dH][dR][dD][dE][dK])	–	–	completely abolished the inhibitory potency	–	–
PCP-13.12: PCP-13 with D changed to E ([dI][dL]G[dH][dR][dE][dY][dK])	–	–	loss of half of the inhibitory activity	–	–
PCP-13.15: PCP-13 with deletion of terminal lysine ([dI][dL]G[dH][dR][dD][dY])	–	–	complete loss of activity	–	–
PCP-13.16: PCP-13 with glycine changed to proline ([dI][dL][dP][dH][dR][dD][dY][dK])	–	–	loss of activity	–	–
PCP-13.17: PCP-13 with the glycine residue deleted ([dI][dL][dH][dR][dD][dY][dK])	–	–	loss of activity	–	–
PCP-13.19: PCP-13 with a serine substitution of D ([dI][dL]G[dH][dR][dS][dY][dK])	–	–	drastic loss of activity	–	–
PCP-13.23: PCP-13 with H changed to Y ([dI][dL]G[dY][dR][dD][dY][dK])	–	–	significant reduction of peptide inhibitory potency	–	–
SNVLCSIF (Peptide antagonist derived from the sequence of the Prostaglandin F2-alpha receptor.) [PCP-15]	88.1	11.9	–	–	–
WEDRFYLL [PCP-10, wedrfyll]	–	20.0	–	< 100	80
YQDRFYLL (Peptide antagonist derived from the sequence of the Prostaglandin F2-alpha receptor.) [PCP-14]	64.0	36.0	–	–	–
